{"source": "patent US20180296525A1", "about": "“TREATMENT OF AGE-RELATED MACULAR DEGENERATION AND OTHER EYE DISEASES WITH ONE OR MORE THERAPEUTIC AGENTS” (MacRegen, Inc., priority 2017, published 2018)", "key": {"[1]": {"settings": "estimated; cited from earlier work"}, "[2]": {"assay": "Tolerability of intravitreal injections, macaque study", "format": "in vivo, Macaca fascicularis", "settings": "6 monthly intravitreal injections, all macaques; no significant adverse event or side effect", "description": "(§1) The macaque study was conducted according to accepted guidelines. […] One eye per animal received 6 monthly injections of the same escalating dosages of L-4F or scrambled L-4F (total of 625 μg) in a 50 μL volume. The second eye per animal was not injected and was just observed.\n(§2) Clinical laboratory tests including serology, hemograms and liver enzymes were conducted, and ophthalmic examinations were also performed, including fundus photographs, optical coherence tomography (OCT), intraocular pressure testing and blood sampling. After 7 months, all animals were sacrificed and eyes were immediately prepared for histology. Histochemistry was performed with oil red O for neutral lipids and filipin for esterified cholesterol. Immunohistochemistry was performed against complement factor D (CFD) and the membrane attack complex (MAC, C5b-9), both being markers of activation of the alternative complement pathway.\nCirculating hsCRP, which is mainly produced in the liver, is a non-specific marker for systemic inflammation."}, "[3]": {"tested_on": "neutral lipids in and on the Bruch's membrane", "assay": "Oil red O staining of neutral lipids in and on the Bruch's membrane, geriatric macaques with age-related maculopathy", "format": "in vivo, Macaca fascicularis", "settings": "injected eyes after 6 monthly intravitreal injections (total 625 μg), compared to eyes injected with placebo", "description": "as §1\nas §2, with “Immunohistochemistry was performed against complement factor D (CFD) and the membrane attack complex (MAC, C5b-9), both being markers of activation of the alternative complement pathway.” left out\nFor staining with oil red O (ORO), specimens were treated with a 0.3% oil red O (Sigma-Aldrich Biochemie GmbH, Hamburg, Germany) solution (in 99% isopropanol) for 30 min at room temperature (RT), followed by immersion in a 60% isopropanol solution for 12 min. […] Image analysis was performed by grading the intensity of ORO staining (red color) of the Bruch's membrane (BrM) with scores ranging from 0 to 4, according to a qualitative evaluation assessed in four different regions in two separate slices from each eye (a total of 8 different regions from each eye). […]"}, "[4]": {"target": "T1, complement factor D (CFD) (Homo sapiens, UniProt P00746)", "T1 construct": "host or cells: Endogenous CFD in the eyes of AMD patients", "T1 sequence (P00746 26-253)": "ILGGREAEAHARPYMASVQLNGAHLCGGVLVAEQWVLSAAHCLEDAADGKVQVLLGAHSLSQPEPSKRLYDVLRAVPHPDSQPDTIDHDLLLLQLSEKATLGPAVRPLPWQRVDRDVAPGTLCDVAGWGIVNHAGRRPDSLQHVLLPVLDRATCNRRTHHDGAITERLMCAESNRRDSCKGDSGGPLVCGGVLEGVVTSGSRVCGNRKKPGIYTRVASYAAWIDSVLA", "settings": "patients, monthly intravitreal 10 mg in one eye for 18 months, injected eye, compared to placebo; cited from earlier work"}, "[5]": {"settings": "without encapsulated cell technology; cited from earlier work"}}, "data": [{"molecule": "bevacizumab: anti-VEGF antibody", "values": [{"measurement": "intravitreal half-life", "setting": "[1]", "value": "about 9.8 days"}]}, {"molecule": "Ac-DWFKAFYDKVAEKFKEAF-NH2 [L-4F, Ac-DWFKAFYDKVAEKFKEAF-NH2 acetate salt]", "values": [{"measurement": "tolerability", "setting": "[2]", "value": "well tolerated"}, {"measurement": "reduction of lipid deposits from the BrM (oil red O staining)", "setting": "[3]", "value": "about 56%"}]}, {"molecule": "ranibizumab: anti-VEGF antibody fragment", "values": [{"measurement": "intravitreal half-life", "setting": "[1]", "value": "about 7.1 days"}]}, {"molecule": "aflibercept: soluble fusion protein containing extracellular domains of VEGFRs; anti-VEGF agent", "values": [{"measurement": "intravitreal half-life", "setting": "[1]", "value": "about 9.0 days"}]}, {"molecule": "lampalizumab: antigen-binding fragment (Fab) of a humanized monoclonal antibody targeting complement factor D (CFD)", "values": [{"measurement": "reduction in the rate of GA enlargement, and hence the area of GA", "setting": "[4]", "value": "about 20%"}]}, {"molecule": "CNTF: ciliary neurotrophic factor, an endogenous neuroprotector (protein, UniProt P26441 1-200, looked up) Ciliary neurotrophic factor: MAFTEHSPLTPHRRDLCSRSIWLARKIRSDLTALTESYVKHQGLNKNINLDSADGMPVASTDQWSELTEAERLQENLQAYRTFHVLLARLLEDQQVHFTPTEGDFHQAIHTLLLQVAAFAYQIEELMILLEYKIPRNEADGMPINVGDGGLFEKKLWGLKVLQELSQWTVRSIHDLRFISSHQTGIPARGSHYIANNKKM", "values": [{"measurement": "half-life of CNTF", "setting": "[5]", "value": "1 to 3", "unit": "min"}]}]}
